What was measured:
[1] = molecular target: T1, p63-DBD (UniProt Q9H3D4); experiment: fluorescence polarization; details: FP: 100 nM 5'-fluorescein dsDNA, 10 mM sodium phosphate pH 7.2, 1 mM DTT, temperature not stated; NMR: 1 mM sodium phosphate pH 7.2, 100 mM NaCl, 5 mM DTT …
T1 sequence: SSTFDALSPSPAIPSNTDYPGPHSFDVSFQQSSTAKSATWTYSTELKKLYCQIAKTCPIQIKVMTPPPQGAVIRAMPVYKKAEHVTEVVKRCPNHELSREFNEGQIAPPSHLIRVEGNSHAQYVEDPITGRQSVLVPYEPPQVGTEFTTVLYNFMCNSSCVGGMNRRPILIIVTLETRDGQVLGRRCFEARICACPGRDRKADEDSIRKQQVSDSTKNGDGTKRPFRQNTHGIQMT

[2] = molecular target: fluorescein-labeled BclxLΔTM (human) (UniProt Q07817); experiment: fluorescence polarisation; 100 nM N-terminally fluorescein-labeled BclxLΔTM titrated with increasing amounts of p63-DBD; 10 mM sodium phosphate pH 7.2, 1 mM DTT; one-site or cooperative binding model; triplicate
Chain of fluorescein-labeled BclxLΔTM (human) (Q07817 1-212, stated change not applied): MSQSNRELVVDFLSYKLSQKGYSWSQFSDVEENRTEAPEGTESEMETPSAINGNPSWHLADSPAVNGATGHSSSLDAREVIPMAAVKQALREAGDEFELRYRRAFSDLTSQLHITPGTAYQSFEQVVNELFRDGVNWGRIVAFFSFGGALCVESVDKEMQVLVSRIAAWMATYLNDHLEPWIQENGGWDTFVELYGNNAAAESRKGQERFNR

[3] = molecular target: p53 DBD (Homo sapiens) (UniProt P04637); details: cited from earlier work
Chain of p53 DBD (Homo sapiens) (P04637 94-312): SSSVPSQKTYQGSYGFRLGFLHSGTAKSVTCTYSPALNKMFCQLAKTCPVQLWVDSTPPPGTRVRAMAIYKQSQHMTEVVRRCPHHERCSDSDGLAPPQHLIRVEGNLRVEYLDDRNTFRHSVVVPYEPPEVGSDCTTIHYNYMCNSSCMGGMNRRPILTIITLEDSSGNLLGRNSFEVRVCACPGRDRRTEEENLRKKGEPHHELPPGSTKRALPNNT

Chain of BclxL (Q07817 whole entry): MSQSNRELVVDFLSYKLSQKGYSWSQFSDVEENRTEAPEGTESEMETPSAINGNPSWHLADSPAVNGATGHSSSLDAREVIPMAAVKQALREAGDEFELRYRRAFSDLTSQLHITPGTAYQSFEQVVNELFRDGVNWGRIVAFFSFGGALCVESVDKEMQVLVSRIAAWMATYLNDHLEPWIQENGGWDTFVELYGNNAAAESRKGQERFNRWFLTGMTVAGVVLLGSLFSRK

| Substance | binding signal (fold lower affinity than p53-DBD) [1] | also measured |
| --- | --- | --- |
| Jag-1 response element | 2 | – |
| Bax response element | 2 | – |
| p21 response element | 2 | – |
| p63 DNA binding domain (from UniProt Q9H3D4 153-388) (domain or fragment) | – | Kd [2]: 38 µM |
| BclxL (from UniProt Q07817) | – | Kd [3]: 5.5 µM |

Reference: PMC4880913
